Experiment: soluble on expression in E. coli; label from the status in PepcDB or PDB records

Row | Sequence | soluble on expression in E. coli
1 | MVAAAVVGTAAVGTKAATDPRSVGTQVDDGTLEVRVNSALSKDEQIKKEARINVTAYQGKVLLVGQSPNAELSARAKQIAMGVDGANEVYNEIRQGQPIGLGEASNDTWITTKVRSQLLTSDLVKSSNVKVTTENGEVFLMGLVTEREAKAAADIASRVSGVKRVTTAFTFIKLEHHHHHH | not soluble
2 | MAHHHHHHMDSGTKREFGRNVTNVDDFKGAKLTPSKIHHQKFEGSDKRHGVRLADEGKWCIHKRSRVEPVAAGPSRERSVEETKSTTTCCSLPLPSQETNLCSIRGDSNTCSSDDSSIERYFDESCEAIEAPTAPAPRPPSPTWNNALRTVSGTAAAVLQDLKNAASLQTDQSSSSEVLPSPPVIPLIL | not soluble
3 | EYSYQYNLRVEPGVSHQRANIGIDYQGMDWIIGPNYTAEQARIILRLDDQTRYVLQPEKRHYPVRVMNMTEPAILSLWHGDYYLTLGDKVGTNAYAIKVQ | not soluble
4 | MIGVVIPAHNEEQLLADCLRCALKAASHPELNEDVAILVVLDSCSDGSLDIARQFAVQHLQLQVRNVGRARAAGAQLLLQAGARWLSCTDADSRVPEDWLVAQLALGADAVCGTVTVDRWSESFEPQARIRYHDAYQDSDGHRHIHGANLGISAAAYVRAGGFEALACHEDVQLVRQLQRCGASIAWSRHPQVITSGRLDSRAKGGFGDYLKGLNEPCAGLLEHHHHHH | not soluble
5 | MNSCNRLPCAHEVLAVFAHPDDESFGLGAVLGDFTAQGTRLRGLCFTHGEASTLGRTDRNLGEVRREELAAAAQVLGVDHVQLLAYPDNGLAQIPLNELTQRVVDALAGADLLLVFDDNGVTGHPDHRRATEAALAAASTPSIPVLAWALPQPIADRLNAEFSASFGGRGHGHLDIMIEVDRSRQLAAIGCHFTQSADNPVLWRRLELLGDREYLRWLRRSVP | soluble
6 | GSHMKISARNVFKGTVSALKEGAVNAEVDILLGGGDKLAAVVTLESARSLQLAAGKEVVAVVKAPWVLLMTDSSGYRLSARNILTGTVKTIETGAVNAEVTLALQGGTEITSMVTKEAVAELGLKPGASASAVIKASNVILGVPA | soluble
7 | GPGSMMVLDIQLFRDETGANIIRESQRRRFADPDIVDAIIEADKKWRRTQFLTEASKKLINICSKAVGAKKKAKEADGDTSEIPPQVKEAYENGTLKGEQVEQLCVLQLKQLSKDLSDQVAGLAKEAQQLEEERDKLMLNVGNILHESVPIAQDEETGNTVVRTFGNTTKRAKLNHVSIMERLGMMDTSKAVTSMAGGRSYVLKGGLVQLQVALVSYSLDFLVKRGYTPFYPPFFLNRDVMGEVAQLSQFDEELYQVSGDGDKKYLIATSEMPIAAYHRGRWFTELKEPLKYAGMSTCFRKEAGAHGRDTLGIFRVHQFDKIEQFVVCSPRQEESWRHLEDMITTSEEFNKSLGLPYRVVNICSGALNNAAAKKYDLEAWFPASGAFRELVSCSNCTDYQSQSVNCRYGPNLRGTAAQNVKEYCHMLNGTLCAITRTMCCICENYQTEEGVVIPDVLRPYMMGIEMIRFENNAQAEGTTPDKGE | soluble
8 | ASHSRKFLDVRSEEELLSCIKKETEAGKLPPNVAAGMEELYQNYRNAVIESGNPKADEIVLSNMTVALDRILLDVEDPFVFSSHHKAIREPFDYYIFGQNYIRPLIDFGNSFVGNLSLFKDIEEKLQQGHNVVLISNHQTEADPAIISLLLEKTNPYIAENTIFVAGDRVLADPLCKPFSIGRNLICVYSKKHMFDIPELTETKRKANTRSLKEMALLLRGGSQLIWIAPSGGRDRPDPSTGEWYPAPFDASSVDNMRRLIQHSDVPGHLFPLALLCHDIMPPPSQVEIEIGEKRVIAFNGAGLSVAPEISFEEIAATHKNPEEVREAYSKALFDSVAMQYNVLKTAISGKQGLGASTADVSLSQPW | soluble
9 | GSRPATPPVTPPSREGHVADLDRFPQDLRVYAMKAGADRQLLPFTEQAAQDARWNRRFFAPWRMTRISVPVKDVAAPFGTDGRPRGYAENLLPWDVTRWGALASGAALDLYPSQAWKGIVVSNSALREVPTLRPMFTAPTRAGQGYPFDMFQRTAVWMGTPVFVGHATADRAWLYVETAFAAGWMPAADVARVDDAFMTRYESGSLAAILRDDTSLNGADGTHLATAHIGTVLPLSGASQVGRTVLVPVRAPEGHAVVVPVLLTSGEAAQKPVPLTPGNMAELGNRMMGQPYGWGGLYEDRDCSSTLRDLFTPFGLWLPRNSASQAKAGRYVDIAKLDADDKEARIVAEGVPFMTLLWLRGHITLYLGLHEGQAAMFHNMWGIRTHRGGVEGRYVLGRAVVTSTRPGLDVPGNDNADGLLGRMQGMSILPGGAQ | soluble
10 | MTNSIHEMIRASFKCEDMVKCVLGLKSLDIEAYKALLMHGPQTAEKLGEILNRERSTAYRSLQNLIACGIVYRETRSIESGGYYYEYVAIEPQEMKRMVKKNVDEWYNQMNELIEKMDDKVNALVTRLEDDEAKQK | not soluble
11 | MYFKMITSAPWVLYPEIGEDPSKKWIFREPKISDGDGIYSLIADCPPLDMNSSYCNFLQSTHFSKTSILVEHKGDIAGFISGYQKPDEQDVLFIWQVAVSPRFRGNGLAFRMLKELLEREALSEVKSVETTITEDNQASWALFKKLDAMNGNHGQVSTFLDEKAHFKGKHDTEFLYRIPLK | not soluble
12 | MSKLMQNPVLHELKKQASFFIKEKIKTARLAVTDVTAEELLTEEVTGSDHSSIDSRSMAAITRVSFEVDQFQRIVKILRQRMVVFDRKEWRGMCNTLSMLNHLLLNGPLSVFSEFQHERAIIEDAIKMEWIDERGFDCGLKVRNIAEKVLRLLEDDMFLKDERERNRKQSIGRITGFGNSSFVIHSETNNGRDGSLMLSNHQTCENDCIADDHPFVENEHKTAQLLLSSST | soluble
13 | LPAMEIECRITGTLNGVEFELVGGGEGTPEQGRMTNKMKSTKGALTFSPYLLSHVMGYGFYHFGTYPSGYENPFLHAINNGGYTNTRIEKYEDGGVLHVSFSYRYEAGRVIGDFKVMGTGFPEDSVIFTDKIIRSNATVEHLHPMGDNDLDGSFTRTFSLRDGGYYSSVVDSHMHFKSAIHPSILQNGGPMFAFRRVEEDHSNTELGIVEYQHAFKTPD | soluble
14 | MKFFNREKEINEILLILEEEPNNIYFIYGPLNSGKSTLIREVITNRLDKSKYIPFFIDFRTRNILNVDNFIECLFEVDEKSKIDDFREYAKSLADLLVKGSEEISKYYLGMPIKVPKPFFDRIFSKRDKSADVYQYIEYLFAKLNEKGKKPILIFDELQMIREITLNGNRLLLWSLFQFLVALTKVQHLCHVFCLSSDSLFIEYIYGKAELKGGVDYILVDDFDKKTALKFMDFLAKQKNINLTNEDKELIYSYVGGKAKYIYDVIVKLKAVKDLKYILETKLEEERNHLEELLEKVEEDYEGINYDEVLEALKLFKDNYELPKSKIKRKIRIFLIKENILFLNPQKGTLKPQSYLVWNAIKRML | not soluble
15 | AGGGYWHTSGREILDANNVPVRIAGINWFGFETCNYVVHGLWSRDYRSMLDQIKSLGYNTIRLPYSDDILKPGTMPNSINFYQMNQDLQGLTSLQVMDKIVAYAGQIGLRIILDRHRPDCSGQSALWYTSSVSEATWISDLQALAQRYKGNPTVVGFDLHNEPHDPACWGCGDPSIDWRLAAERAGNAVLSVNPNLLIFVEGVQSYNGDSYWWGGNLQGAGQYPVVLNVPNRLVYSAHDYATSVGPQTWFSDPTFPNNMPGIWNKNWGYLFNQNIAPVWLGEFGTTLQSTTDQTWLKTLVQYLRPTAQYGADSFQWTFWSWNPDSGDTGGILKDDWQTVDTDKDGYLAPIKSSIFDPV | soluble
16 | MAHHHHHHMRGTTKPMLFLCSTAVRLNFFPLGLSAGPLNSHILLPRNNFDGRTTHGMKKIQGQSKDPQMVMSRDELKLRCEYCRFEWIHDTLCVRCPAQPSHDQREMWLHSTWMWGKQQPYKYYKYMPAVRNPRTGMPMAREDARGMNNERRGQGLTTRTLNLEKERRGISRDVSRIGQYNTRWKTRFPFPT | not soluble
17 | MNYGFVKVAAAVPHVKVADCKFNVERIESQIAIAEGKGVQIIVFPEMSITGYTCGDLFGQQILLEEAEMGLMQILNNTRQLDIISIVGMPVVVNSTVINAAVVIQKGKVLGVAAKTYLPNYKEFYEQRWFTSALQLTEDTVRLCGQIVPIGANLLFETSDTTFGIEICEDLWATIPPSSSLALQGAEIIFNMSADNEGIGKHHYLCSLISQQSARCIAGYVFSSCGFGESTTDVVFAGNGLIYENGSLLARSKRFCMEEQLIISEIDVERIRAERRINTTFAASQGNPGDKKAISVATEFVNSKELTLTRDFNSHPFVPQGAELDEHCEEVFSIQIAGLAQRLVHTKAKTAVVGISGGLDSTLALLVCVKTFDKLGLPRKDILGVTMPGFGTTDRTYNNAIDLMKSLGISIREISIQDACIQHFKDIDHDINVHDVTYENSQARERTQILMDIANQTWGMVVGTGDLSELALGWATYNGDHMSMYGVNGSIPKTLVKYLVQWVAENDMDEDAKATLLDIVDTPISPELIPADENGEIKQKTEDLVGPYELHDFFLYYFLRFGFRPSKIYYLANIAFKDVYDKETIKKWLSTFFRRFFNQQFKRSCLPDGPKVGSISISPRGDWRMPSDASSTIWLKEIEDLLEHHHHHH | not soluble
18 | MSLAGCTSPANNGAGGDENGETVYRVAYVARTQSDSFAAWLANAISEEADKYDNIIIDVFDGQASDSTQNSLIENAITSNYDAIIIQPNNGEAQKSYAEQAVAAGIITITTNARIEGVQGASSVDADPYEQAKVNADVALEQIPQNANVVVLKGPPGNFHADARRDSWQKEFFDKRPDVTIVGEEIANWNKDEAMTYMETWVQANSKIDAIIAMNDNMAAGALEVVRDDSNFAGMLSYGVDGTAEAVLLIQEGVMTQTSLQSAYDLATALLDTSNKLLTGAETQIDIDIDAPVINSDNVEEYVEMHKRAGAIREGHHHHHH | soluble
19 | GPGSMTTPNFELYGYFRSSCSGRLRIAFHLKSIPYTRHPVNLLKGEQHSDTYKSLNPTNTVPLLVVSNINNTVSPSSASFSIGQSLAALEYLEEALPTNARPLLPPISNPVARAHVRTICNIIACDVQPVTNLKIQKKVKALDGDPTVWSRDLATQGFGAVEKLLELSAGRFCVGDEITLADVCLVPAVWAAERVGMDLARFPITKRVFEEMLKEEAVQKAHWQKQEDTPEDLRA | soluble
20 | MSLLKVREMEREDVERVYEINRESFTTDAWSRFSFEKDFENKFSRRFVLEEDGKVVGYVIFWVVKEEATIMTFAIAPGYRGKGYGEKLLREAISRLGDKVKRVVLDVRKSNLRAINLYKKLGFKVVTERKGYYSDGENALLMELKISRPSEAELSREGHHHHHH | soluble
21 | VLKQGYMMKKGHRRKNWTERWFVLKPNIISYYVSEDLKDKKGDILLDENCCVESLPDKDGKKCLFLVKCFDKTFEISASDKKKKQEWIQAIHSTIHLLKLGS | soluble
22 | MDLPVMPPVKPMLAKSVAKIPPDMQYEAKWDGFRAIVFRDGTEVELGSRTGKPLTRYFPELVEALRDRLPERCVIDGEIVIARDGRLDFDALTERIHPAESRVRMLAEKTPASFVAFDLLALADDSLLDTPLTERRALLESALSGVTAPVHVAPATTDREVAEQWFEQYEGAGLDGVIAKPLTLRYRQDERAMFKVKHERTADVVVAGYRLHKSGPVVGSLLLGLYDDRGALQHVGVSAAFPMKRRAELVEELEPLRMEDAAGHPWAAWSNEAAHETARLPGAPSRWSGKKDLSWVPLRPERVAEVAYDHMENGARFRHTARFRRWRPDRTPESCTYAQLEEPVSYDLTEILGSRGLEHHHHHH | soluble
23 | GPGSMAVPDDNAEEVELLLSISPEVVCRDPTHSSTLVFLLPFRFVLHVTLPPRGYPDVSRPSLFVAAGPNAHLVNQFSSQLNKALREEVPLGGPMLLHIFTLAQDIATELQRTREAEAQEAKARREAMESEAQLALAEREASSVEVWASDAITDRKSKFVAHMARVDSEAAVREVVMHLRSQKHIAEAAHPTIYAYRFTDSSGVVHHDSDDDGETGAASRIMFLLEQMKVDGYVVVVTRWFGGVLLGPDRFKHIMEVARSILLTIPQREKERGVRDWQDRQ | soluble

Source: the DeepSol protein solubility set
